Experimental data: patent publication US20210085781A1

Target: recombinant SARS-CoV-2 S1 protein expressed from insect (Sf9) cells (S1-His, SinoBiological, Cat. No. 40591-V08B1) (SARS-CoV-2) (UniProt P0DTC2)
Assay: ELISA, coated S1 from Sf9 cells, HRP-conjugated lectin 10 ug/mL

Salvia sclarea lectin (SSA; Cat. No: H-3501-1)
mean fold increase of OD450: 3.97 fold
